Laboratory results: article doi:10.1101/2023.06.28.546964

Target: T1, PfAgo binding-pocket mutant (UniProt Q8U3D2)
T1 sequence: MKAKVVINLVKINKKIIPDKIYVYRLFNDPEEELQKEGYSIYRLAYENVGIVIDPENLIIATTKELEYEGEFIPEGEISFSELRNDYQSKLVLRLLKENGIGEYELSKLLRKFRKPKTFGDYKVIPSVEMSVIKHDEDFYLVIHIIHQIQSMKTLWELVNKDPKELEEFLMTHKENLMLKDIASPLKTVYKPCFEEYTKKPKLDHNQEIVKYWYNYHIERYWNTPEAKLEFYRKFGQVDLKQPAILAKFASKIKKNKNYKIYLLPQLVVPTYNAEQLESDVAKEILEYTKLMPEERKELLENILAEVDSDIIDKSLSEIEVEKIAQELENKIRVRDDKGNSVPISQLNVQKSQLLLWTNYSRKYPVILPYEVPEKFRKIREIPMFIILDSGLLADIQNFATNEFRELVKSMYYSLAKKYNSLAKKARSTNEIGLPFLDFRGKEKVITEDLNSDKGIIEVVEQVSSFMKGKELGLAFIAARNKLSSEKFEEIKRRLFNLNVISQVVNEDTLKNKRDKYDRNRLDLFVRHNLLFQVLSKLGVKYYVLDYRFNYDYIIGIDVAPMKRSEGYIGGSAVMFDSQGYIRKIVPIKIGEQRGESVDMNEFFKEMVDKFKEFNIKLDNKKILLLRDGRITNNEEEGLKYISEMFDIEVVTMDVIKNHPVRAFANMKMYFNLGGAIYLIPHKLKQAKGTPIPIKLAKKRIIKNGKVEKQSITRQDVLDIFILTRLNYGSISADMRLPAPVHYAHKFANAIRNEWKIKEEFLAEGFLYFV
Test: fluorescence polarization

Sequence	binding signal (fold affinity gain)	binding signal (fold affinity gain (up to)) (5' phosphate)
ATATACTATACAACCTACTACCTCGTATAAATTTTTAAATAAATA [45nt DNA target]	3	
TGACGTAGTAGGTTGT [guide_m4]		2
